Data from paper PMC8831504.

Target: cpNanoLuc α-amylase biosensor (VHH-cpNanoLuc-VHH fusion)
Experiment: luminescence titration of a single-component biosensor; 1 nM biosensor in 200 μl 20 mM Tris-HCl pH 7.2, 100 mM NaCl with 0.25 μl furimazine stock, titrated with its protein ligand; preincubated 15 min at room temperature; luminescence 445-470 nm; fit to a quadratic binding equation

cpNanoLuc α-amylase biosensor (VHH-cpNanoLuc-VHH fusion), sequence (main, as listed by the source): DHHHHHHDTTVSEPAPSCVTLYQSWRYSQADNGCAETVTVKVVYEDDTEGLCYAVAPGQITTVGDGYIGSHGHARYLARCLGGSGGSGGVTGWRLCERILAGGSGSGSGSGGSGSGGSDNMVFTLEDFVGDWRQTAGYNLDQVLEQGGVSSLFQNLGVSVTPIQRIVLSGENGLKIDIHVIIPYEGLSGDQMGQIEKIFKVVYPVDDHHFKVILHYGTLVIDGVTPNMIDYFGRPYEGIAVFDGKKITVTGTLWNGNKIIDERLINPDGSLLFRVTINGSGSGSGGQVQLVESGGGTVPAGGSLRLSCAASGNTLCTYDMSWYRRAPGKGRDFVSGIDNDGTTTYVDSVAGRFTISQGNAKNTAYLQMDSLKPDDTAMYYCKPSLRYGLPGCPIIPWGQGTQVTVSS

B1: human α-amylase (enzyme)
chain: QYSSNTQQGRTSIVHLFEWRWVDIALECERYLAPKGFGGVQVSPPNENVAIHNPFRPWWERYQPVSYKLCTRSGNEDEFRNMVTRCNNVGVRIYVDAVINHMCGNAVSAGTSSTCGSYFNPGSRDFPAVPYSGWDFNDGKCKTGSGDIENYNDATQVRDCRLSGLLDLALGKDYVRSKIAEYMNHLIDIGVAGFRIDASKHMWPGDIKAILDKLHNLNSNWFPEGSKPFIYQEVIDLGGEPIKSSDYFGNGRVTEFKYGAKLGTVIRKWNGEKMSYLKNWGEGWGFMPSDRALVFVDNHDNQRGHGAGGASILTFWDARLYKMAVGFMLAHPYGFTRVMSSYRWPRYFENGKDVNDWVGPPNDNGVTKEVTINPDTTCGNDWVCEHRWRQIRNMVNFRNVVDGQPFTNWYDNGSNQVAFGRGNRGFIVFNNDDWTFSLTLQTGLPAGTYCDVISGDKINGNCTGIKIYVSDDGKAHFSISNSAEDPFIAIHAESKL
Question: B1 was tested. Which Kd did it give?
Answer: 500 pM
